Data on 18 sequences can be found in the DeepSol protein solubility set.

This data set can be described thus: soluble on expression in E. coli; label from the status in PepcDB or PDB records.
On to “MSAKIKAWSSNAEKLNSKRKKMEIREELFPSTTCSSSPQANQEISSEDRNSHHPDIASSSSATTCRSSNCFNMDEGILTRDVEMDFSDEIPTFSHNRFSNPVFPPTPSRNSFSTPRVRIISNVEQIPQIKMLRLTIERLKNEKMKYQKKYKSGMAVDFLSKCGLSLSQMEKIKNYLTNSIGYDLLPLVKNTRDLSIQLSMISSFKVSTSFDNKGKVITIVQCMKIAEVLAYRIELLCNSNQFVDDGYTKGVIKIGVVGDAGGGSTKHVMVIAVYDGSDNYSCLKKFIPDVLEQLGKLTKIRYLDKGVQKTAKIVQIATGDCKFQFDILGHQGHSSHNFCFKCFAQNPRGAEERMKIKDMNVDETFHPRTIDLYKACCTPLLPHVAIMFYLIPLLHIIMGIFDKYIFNPLWKYSVTLDNTTCFPILKTRKATLKNAVNLIKSAEEKYQAATGKMKLESHAELKALQSEKLLLDTIVNGTPGGTLEKMEQCWAKFGADKQAWFQSFCGNHLKLLLTPAIVEETFNIFGPNLCPMLLGLKSAMGKLSTIMSLSGNKFLNDSDVLILQNSIRGFVEDLKVAVPEETIILKLHLVVYHAPQMAKDVRNIGRITEPGVESVHAIFNALERRFCNYRDKKRRYIHVLRELMCRNIMNDMTMNTSIPGLSIVPKDATVLPISSQNDLRDPKVVIRDVTAAQKRKNLAKKKINFSSKKRLPQSTKSRNAVPDFSQNVQTSIAFGGNSTKIGFRGLPSNALSRPNPMAITQTCSTSQPITRSHPLVAPPVSYQLPKCSNSLAEKIRASCGQARRSAAESSSTESHVDTNSKKKVYRLKFVQKSREIPKK”, for which the “soluble on expression in E. coli” value is recorded as “not soluble”.

On to “MSALDCPAGTVLFRAGQDCPGFLRLDEGSIRVTLTAANGREVVLYRVRPGDVCLQTFACLTEGRSYSAEGVAETRVRGHLMSHADFRTALARDEAFRTEVMQAVARRFADFEHLVEDVALTGFDTRLARVLLRLAKGDTVAATHEALAAETASGRAFVSRRLAEFARQGLVELARGRVTLCDRSGLERIAAEER”, for which the “soluble on expression in E. coli” value is on record as “not soluble”.

Regarding “MSANGCCCCGGVDSREQKLNEIIEKYKNTKGALVPVLHEAQEVYGYLPLEVQKKIAEGLNIPLAEVYGVVTFYTQFSLNPKGKYKIQVCMGTACYVKGSGAILEKLKEKLEIDVGECTSDGKFSLEACRCIGACGLAPVIMINDDVYGRLVPDDIEGIIEKYKKE”, the “soluble on expression in E. coli” value was “soluble”.

Regarding “MSANREKKKLETVIKNLEKKIEDQKANAGTKKKEAEQKENLRIEQEKIKKKKEQERLEVPPTPFDDLNSQSAKTLRVEKAIENLKFLGGKSTEFYRRVIGRLGKSGLFKWKMSKREGFYLYHACGLTRRKLRTLKAHFSKSGCSDPFPSVHEIMKIEKIVGAGEQFSVTEHDKDGEEVVAAHLVDVIKYLTDRIHHLIDNGNLVIGTDPIWLTILGDKGSDEFKLCLSIGNAKNPNSCCHLIPLGIFNDDEKSSNISNDLTPIVAQLNSLKELKLKVAGTDVTVPVQQFLGGDMKFQYDVLGHQGASSQFHCMFCNSLKSRLIGGYIRGANVTLRTAASYKENSGKDGNNYARKKSVSIRSRQSTKCDPRSLHTLMGLAQRFGFDYLILWAARIDNPTLTLTKTDIKRSKISKGRLNQLQESLKKLEKVVSGMETVQQVFQNYKNKRVDGRSCGETCHASICLFKDKKMKSAKGYDGRKVECNTCFQAVHAVCGGLWTLDDWELTISIFRENNRHLNELRSDLREKKSVIFSQGLKIDMLESQLSQRQTEFEYRSANAAANSFTRKDHGKLYHCFDIKNQDSTSVSDTMTCRCSMKPCVFYLDSLPAAKTPSLTQLRRIVVLMQQKPSQKIDPKEMLLMTSMHLPFPMQEPSTEYFNAISGCSTSYICVEEMGIGFSFRRHVEKLWMKNLPPATNGTDKAANDLKNQLKVRRNVGKHDRTSRYARKSHN”, the “soluble on expression in E. coli” value is “not soluble”.

With “MSAPAAAPKHPGKVFLDPSEVADHLAEYRIVDCRYSLKIKDHGSIQYAKEHVKSAIRADVDTNLSKLVPTSTARHPLPPCAEFIDWCMANGMAGELPVLCYDDECGAMGGCRLWWMLNSLGADAYVINGGFQACKAAGLEMESGEPSSLPRPATHWPFKTAFQHHYLVDEIPPQAIITDARSADRFASTVRPYAADKMPGHIEGARNLPYTSHLVTRGDGKVLRSEEEIRHNIMTVVQGAGDAADLSSFVFSCGSGVTACINIALVHHLGLGHPYLYCGSWSEYSGLFRPPIMRSIIDDYGMCMQMQTPSLGDNPKANLDTMTLKVDGAPCERPDAEVQSAATHLHAGEAATVYFKSGRVVTIEVPVVPNLEA”, the “soluble on expression in E. coli” value is given as “soluble”.

As for “MSAPLFSVVVPAYNQHKFIDSCLTSLQRQTLTDFEVFVVDDCSTDDTGEQIAALIKGDDRFHVITHAHNRGVSAARNSGMAAAKGKYLCFVDGDDWVEPDFLATFLAAYRSAPDTQLVVCGHYGYLAVPSPAKTYNQKDLIANINFGTVGGFSWNKAFIRSIITTHHLKFNEDIDFLEDQLFAFRYANYVQSSEYVPDRTYHYRWRFRSNLAHIGIPFFTARRKMMKILKQENKQVLNEDWNNQ”, the “soluble on expression in E. coli” value is “not soluble”.

For “MSAQLTDSYGLLEARVTELKGELADAGVQRLQELAEKERLANRLQNLLDLLPGGVIVIDGMGVVREANPAAIDLLGQPLLGMLWRHVISRCFAPREDDGHEVSLKDGRRLSIATRSLDAEPGQLVLLNDLT”, the “soluble on expression in E. coli” value is given as “not soluble”.

For the sequence “MSAQVQDLTPIKGVTYYYPPHDAVLVFKDGAAEIPYGGLPVPLLEEDYASLDGEPSYDAVGRGVYQTLRTNPDCIHCAAYATLLRDAYPHYLAELASHAIMLDSKDVEVPYIDRKIVSLKVLSLLEPDNAGLPLEIGRAYLDRGLRLSALHMSTVSIYRAEHFLRRALELTPEDGRALRLLGEVCYLLGKYEEAASCWLDTLDLADADEAERFRVRLARISEGRLPLIAPVDYLEAIGAAFTCFHTGDYEEAVAILQDVLMDGIFCAEFPIADIHCVIGKSFVQLDMPRYAEESFRAALQLDPAHEESLACLRKVTGEELEHHHHHH”, the “soluble on expression in E. coli” value is “soluble”.

Regarding “MSDCNWTNPLCNTSLLLASGYALWSCASKKNKKETKTETKKSHDCPPQTIEPVKDEKNSNSEEKKTTSSNNEVPPQKKLIGNDEVKKEKKKSEDDLLDVKKTASKEDDKKRMDKKDPSKKLSKEKLREEKKEQSKKVNKEKKMNKSESVDEDNEQPPEPGSDPRKIWAFKAAKMKCQAISKLHQDKIKGYMPPNCTYTAYDANPDLNRYADVRCIEETRVVLKNHDRDYIHASWMRMPGKDQSTYITTQGPLPETLSDFWHMIYQEKIAYVLMLCTLFEGGVEKCALYYPEKLGEVVKFGKYEITLTECKEEAIAGTIWNALTVTNTEDASSEPLYMNHVQVPWWPDQLAPEDARPMIELYKWVKKVNPKETPICVHCSAGVGRTATFVGIDYATIRIMENPNIEMLDIVREMRAMRFQAVQSHMQFLFLYVVLMEYFIGEGVVERTGRVDTFMTQYKKHAQKKLAKRAAQNQQGEKLAAEEKEKDKVKV”, the “soluble on expression in E. coli” value is “soluble”.

As to “MSDDARFQQLNCWLDSCLPELFVAEGWGEVPPAELIPASSDASFRRYFRWQGGDRSLVVMDAPPPQEDCRPFVKVAGLLAGAGVHVPRILAQDLENGFLLLSDLGRQTYLDVLHPGNADELFEPALDALIAFQKVDVAGVLPAYDEAVLRRELQLFPDWYLARHLGVELEGETLARWKRICDLLVRSALEQPRVFVHRDYMPRNLMLSEPNPGVLDFQDALHGPVTYDVTCLYKDAFVSWPEPRVHAALNRYWKKATWAGIPLPPSFEDFLRASDLMGVQRHLKVIGIFARICHRDGKPRYLGDVPRFFRYLETAVARRPELAELGELLASLPQGAEA”, the “soluble on expression in E. coli” value is listed as “not soluble”.

For the sequence “MSDEALTLLFSAVENGDQNCIDLLCNLALRNDDLGHRVEKFLFDLFSGKRTGSSDIDKKINQACLVLHQIANNDITKDNTEWKKLHAPSRLLYMAGSATTDLSKKIGIAHKIMGDQFAQTDQEQVGVENLWCGARMLSSDELAAATQGLVQESPLLSVNYPIGLIHPTTKENILSTQLLEKIAQSGLSHNEVFLVNTGDHWLLCLFYKLAEKIKCLIFNTYYDLNENTKQEIIEAAKIAGISESDEVNFIEMNLQNNVPNGCGLFCYHTIQLLSNAGQNDPATTLREFAENFLTLSVEEQALFNTQTRRQIYEYSLQ”, the “soluble on expression in E. coli” value is on record as “not soluble”.

Turning to “MSDEEIDISTALNNKTTPKKKSLKRNSNSQEGYESPEEREIVYPSVFGAIGTPMAKSDNAKEWDEWKEKERKKDKAEWKRYLRSKWDMTQGHLPLVSDSEFLKGRKEHKEYNSKARMDILDGLDEVNEGFFNCGKGAAMNIRYNDKNVSKKGAKKFVATVETAMKKAGNPTMEQMMTDDLDEDEARAEAEWERQREQRKLASRAYDAAMDEREDDAKYVPWDEYCQEMEELGKELKIGEKHYKKWLEKKMDENKVTHKFNAYQLDLKCLDEDAFSNKKSLKSVVRNVQKFYRKMREPKK”, the “soluble on expression in E. coli” value is listed as “not soluble”.

For “MSDEKKKKRGFFRYSVLTTSSFSSWRRSSTSGSISQSSRTTSKTTTSSSVTSSNPINAPPPTATSSSSVLPSTSSEPPPPASAPPRISIYHKMVPSKSKFRQCDVCEHIFIFDFVRKQHLDDVYACNVCGIRVHKGCLDRVKNDCKITTQYMGGILENAVIQSNKKQWEKPTTASISKSLTTSPTCSTSTTMSPAGVEKNVHKTRKLISMTTSTLDDVTTFNSEINEEMDEETVLMTWEDVTIKLTDVDVMTKIGDGRFGSVYFGGYHGNAAVRFVNMNYLSQEDRRADVFATEIVSAYKNSRHDHIALFYGYVSDPVTNTYAIVTNFYQHNTLYHRIHEQLSEDFDQSWTFQISLQICQAMSYLHKKKILHRDLRTKNILLDNPNRVVVTDFALMKLERLENPRRNCTLLIPNHWIDYLSPEIAGNLMIDWRGDVLFQHELPFSQESDVYSFGTIFFELLLRRMPTGCDSWDQKLYAKMCGQKAALQRLDAQLQKIDGKLHELLLECWSSQPEKRPSFQQIVKRITVQMPRKESNKQKRRSTAHENPLF”, the “soluble on expression in E. coli” value is “not soluble”.

With “MSDIPAGDYEKGKKVYKQRCLQCHVVDSTATKTGPTLHGVIGRTSGTVSGFDYSAANKNKGVVWTRETLFEYLLNPKKYIPGTKMVFAGLKKADERADLIKYIEVESAKSL”, the “soluble on expression in E. coli” value is “not soluble”.

“MSDKDFFSWRRTMLLRFQRMETAEEVYHEIELQAQQLEYDYYSLCVRHPVPFTRPKVAFYTNYPEAWVSYYQAKNFLAIDPVLNPENFSQGHLMWNDDLFSEAQPLWEAARAHGLRRGVTQYLMLPERALGFLSFSRCSAREIPILSDELQLKMQLLVRESLMALMRLNDE”: the “soluble on expression in E. coli” value is reported as “soluble”.

In the case of “MSDKPDSQVFCPNCNERLQKCLVQQNYAIIICPSLVCGYPFNQREVLENLTYVDDNDVLKVAKKRLSSRSKP”, the “soluble on expression in E. coli” value is “soluble”.

For the sequence “MSDLENKKAEEAPKKRPYNLREKKEKKAAYRSLIRPELADELYDKILNIVVVQKKYKDPDYSAKDLAKELKTNTRYLSAVVNSRFGMNYSCLLNEYRVKDALHLLTDKRYADKNVEEISAMVGFANRQSFYAAFYKNVGETPNGYRKKHAESKK”, the “soluble on expression in E. coli” value was “not soluble”.

For the sequence “MSDLFIHPELRFHSYGTWLRRRFGCNVSKVNVDGGFTCPNRDGSRGTGGCIYCDNASFSPGGTVPDKSIELQMAEGMAYHRQRLGSEKFIIYFQKFTNTYAPAARLRDLYTRALSHPDVVGISVGTRPDALADEALELLADLAQEHYVCIELGLQSMDDAILERINRGHTLDEYLRTVDRIAGRGIALCTHLIYGFPGETREGFLKTAHLLAGLPVDSVKLHQLHAVKGTRLAELYHRREFVPITLAEYVTTACDFLELLPPRI”, the “soluble on expression in E. coli” value was “not soluble”.
